Laboratory results: publication PMC13079917 (2026)
Values joined by “and” are separate entries in the source; they are usually repeats but may differ in a detail not shown here. Identical values can stand only once. Like-named read-outs stand apart in the source and are kept apart here.

B1: SES-2 (single epitope scaffold 2) (designed binder)
chain: AVEDALKKAEAAGDEAAIARAEILLARVEEAREILANPNVDPAVGWALLAAVAPEIAALAGGSY
B2: L9 Fab (Fab, V domains shown)
VH: QVKLVESGGGVVQPGRSLRLSCEASGFIFSTYGMHWVRQAPGKGLEWVAVIWFDGSNIYYADSVKGRFTISRDNSKNTVFMQMDSLRAEDTAVYYCHRNFYDGSGPFDYWGQGTLVTVSS
VL: DIQMTQSPSTLSASVGDRVTITCRASQFISRWLAWYQQKPGKAPKLLIYKASSLESGVPSRFSGSGSETHFTLTISSLQPDDVATYYCQEYTSYGRTFGQGTKVEIK

What was measured:
Assay in all cases: SPR
[1] = biological target: B2
[2] = biological target: B2; remark: listed apart in the source
[3] = biological target: SES-1
[4] = biological target: SES-1; remark: listed apart in the source

Row | Binder | koff [1] [s⁻¹] | Kd [2] [nM] | Kd [3] | Kd [4] [nM]
1 | B1 | 0.014 | 42 | – | –
2 | B2 | – | – | 78 nM and 84 nM | 78
